Test results reported in patent US20200283773.

Biological target: nucleolin on surface of HCT116 p53-/- cells (Homo sapiens) (UniProt P19338)
Assay: flow
Details: 2'-F pyrimidines, unit inferred

Sequence of nucleolin on surface of HCT116 p53-/- cells (Homo sapiens) (P19338 2-710): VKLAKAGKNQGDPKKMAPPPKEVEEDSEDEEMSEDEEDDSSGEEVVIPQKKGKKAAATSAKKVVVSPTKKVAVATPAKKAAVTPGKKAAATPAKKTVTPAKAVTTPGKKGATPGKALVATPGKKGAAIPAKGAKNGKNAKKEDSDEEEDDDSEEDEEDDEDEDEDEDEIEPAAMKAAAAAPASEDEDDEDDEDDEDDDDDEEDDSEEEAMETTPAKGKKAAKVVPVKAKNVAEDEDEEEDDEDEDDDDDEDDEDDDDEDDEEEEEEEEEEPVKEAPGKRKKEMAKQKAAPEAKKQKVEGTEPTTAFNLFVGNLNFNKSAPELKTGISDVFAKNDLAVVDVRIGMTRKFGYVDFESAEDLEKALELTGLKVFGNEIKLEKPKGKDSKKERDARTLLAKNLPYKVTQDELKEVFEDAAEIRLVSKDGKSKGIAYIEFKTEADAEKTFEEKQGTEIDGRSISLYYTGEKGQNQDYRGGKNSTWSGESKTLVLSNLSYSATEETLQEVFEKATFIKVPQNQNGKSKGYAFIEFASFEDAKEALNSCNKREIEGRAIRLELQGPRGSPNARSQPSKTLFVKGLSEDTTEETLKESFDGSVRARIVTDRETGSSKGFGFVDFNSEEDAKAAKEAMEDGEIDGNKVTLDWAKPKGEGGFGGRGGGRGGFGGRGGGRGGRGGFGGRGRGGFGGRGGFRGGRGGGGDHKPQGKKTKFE

“GGAAGAGGGAUGGGCACGGUCCAGCGCUAACUGUACCUGCUGUGCCACCCACC [Ev5]” was tested, and the Kd (DL650-labeled Ev5, HCT116 p53-/- cells, Bmax 2.064) was 50.7 nM.
In the case of “GGGAGAGAGGAAGAGGGAUGGGCACGGUCCAGCGCUAACUGUACCUGCUGUGCCACCCACCG [Ev3]”, the Kd (DL650-labeled Ev3, HCT116 p53-/- cells, Bmax 3.214) is reported as 119 nM.
